The experiment concerns the target T1, CD155 with a C-terminal V5 epitope tag, on Raji cells (UniProt P15151).
T1 sequence: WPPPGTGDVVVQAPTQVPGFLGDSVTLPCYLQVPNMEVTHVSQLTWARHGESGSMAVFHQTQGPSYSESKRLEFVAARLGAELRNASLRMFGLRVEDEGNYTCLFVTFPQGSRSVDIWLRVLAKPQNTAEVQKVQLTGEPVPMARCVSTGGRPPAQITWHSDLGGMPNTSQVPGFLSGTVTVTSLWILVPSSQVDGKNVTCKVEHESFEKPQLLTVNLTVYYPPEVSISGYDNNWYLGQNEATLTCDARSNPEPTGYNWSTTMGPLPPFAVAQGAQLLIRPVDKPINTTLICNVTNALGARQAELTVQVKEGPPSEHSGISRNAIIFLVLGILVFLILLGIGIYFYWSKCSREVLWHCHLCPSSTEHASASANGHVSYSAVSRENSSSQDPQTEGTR

B1: TIGIT-SNAP (wild-type TIGIT with a C-terminal SNAP-tag, on Jurkat cells) (receptor)
chain: MMTGTIETTGNISAEKGGSIILQCHLSSTTAQVTQVNWEQQDQLLAICNADLGWHISPSFKDRVAPGPGLGLTLQSLTVNDTGEYFCIYHTYPDGTYTGRIFLEVLESSVAEHGARFQIPLLGAMAATLVVICTAVIVVVALTRKKKALRIHSVEGDLRRKSAGQEEWSPSAPSPPGSCVQAEAAPAGLCGEQRGEDCAELHDYFNVLSYRSLGNCSFFTETG
As to B1, the IL-2 release of Jurkat TIGIT-SNAP cells after 6 h with SEE-pulsed Raji-CD155 relative to Raji-CD111 co-cultures (ELISA) turned out to be 37% and the log2-fold decrease of IL-2 release of Jurkat TIGIT-SNAP cells with SEE-pulsed Raji-CD155 against Raji-CD111 (ELISA) turned out to be 1.45 log2 fold.

These data come from publication PMC10439114.
